Test results reported in patent US20140341881.

Tests used:
[1] = biological target: T1, CFP-LQRAI-YFP-6xHis substrate (peptide E8)
T1 chain: GALGGLQRAIGST

[2] = biological target: T2, CFP-TVDYA-YFP-6xHis substrate (peptide G9)
T2 chain: GALGGTVDYAGST

[3] = biological target: T3, CFP-RVTST-YFP-6xHis substrate (peptide E12)
T3 chain: GALGGRVTSTGST

[4] = biological target: T4, CFP-YQSLN-YFP-6xHis substrate (peptide F10)
T4 chain: GALGGYQSLNGST

[5] = biological target: T5, CFP-TSYLN-YFP-6xHis substrate (peptide D7)
T5 chain: GALGGTSYLNGST

[6] = biological target: T6, CFP-VVMKD-YFP-6xHis substrate (peptide E10)
T6 chain: GALGGVVMKDGST

[7] = biological target: T7, CFP-RQTND-YFP-6xHis substrate (peptide C11)
T7 chain: GALGGRQTNDGST

[8] = biological target: T8, CFP-NQRSS-YFP-6xHis substrate (peptide E5)
T8 chain: GALGGNQRSSGST

[9] = biological target: T9, CFP-STKGI-YFP-6xHis substrate (clone G3)
T9 chain: GALGGSTKGIGST

[10] = biological target: T10, CFP-EAPAK-YFP-6xHis substrate (clone G7)
T10 chain: GALGGEAPAKGST

[11] = biological target: T11, CFP-VGLYD-YFP-6xHis substrate (peptide F6)
T11 chain: GALGGVGLYDGST

[12] = biological target: T12, CFP-KLKET-YFP-6xHis substrate (clone F5)
T12 chain: GALGGKLKETGST

[13] = biological target: T13, CFP-QPNGY-YFP-6xHis substrate (clone F1)
T13 chain: GALGGQPNGYGST

[14] = biological target: T14, CFP-RVDTG-YFP-6xHis substrate (clone D11)
T14 chain: GALGGRVDTGGST

[15] = biological target: T15, CFP-SAVRP-YFP-6xHis substrate (clone E11)
T15 chain: GALGGSAVRPGST

[16] = biological target: T16, CFP-LSRDN-YFP-6xHis substrate (peptide E7)
T16 chain: GALGGLSRDNGST

[17] = biological target: T17, CFP-NNKLR-YFP-6xHis substrate (peptide E9)
T17 chain: GALGGNNKLRGST

[18] = biological target: T18, CFP-MQVKH-YFP-6xHis substrate (clone E6)
T18 chain: GALGGMQVKHGST

[19] = biological target: T19, CFP-AYGLA-YFP-6xHis substrate (clone G5)
T19 chain: GALGGAYGLAGST

[20] = biological target: T20, CFP-RGKTN-YFP-6xHis substrate (peptide D9)
T20 chain: GALGGRGKTNGST

[21] = biological target: T21, CFP-MQATK-YFP-6xHis substrate (clone F4)
T21 chain: GALGGMQATKGST

[22] = biological target: T22, CFP-PVHLY-YFP-6xHis substrate (clone F12)
T22 chain: GALGGPVHLYGST

[23] = biological target: T23, CFP-LSGGR-YFP-6xHis substrate (peptide E2)
T23 chain: GALGGLSGGRGST

[24] = biological target: T24, CFP-PDRHM-YFP-6xHis substrate (peptide F3)
T24 chain: GALGGPDRHMGST

[25] = biological target: T25, CFP-VGSLR-YFP-6xHis substrate (peptide G1)
T25 chain: GALGGVGSLRGST

[26] = biological target: T26, CFP-GHRIN-YFP-6xHis substrate (clone F7)
T26 chain: GALGGGHRINGST

[27] = biological target: T27, CFP-QRLRD-YFP-6xHis substrate (peptide F11)
T27 chain: GALGGQRLRDGST

[28] = biological target: T28, CFP-SDKVY-YFP-6xHis substrate (clone C5)
T28 chain: GALGGSDKVYGST

[29] = biological target: T29, CFP-AYGYK-YFP-6xHis substrate (peptide E1)
T29 chain: GALGGAYGYKGST

[30] = biological target: T30, CFP-YQNSS-YFP-6xHis substrate (clone C9)
T30 chain: GALGGYQNSSGST

[31] = biological target: T31, CFP-HETLK-YFP-6xHis substrate (clone G11)
T31 chain: GALGGHETLKGST

[32] = biological target: T32, CFP-TTDLR-YFP-6xHis substrate (clone E4)
T32 chain: GALGGTTDLRGST

B1: human neutrophil elastase (HNE) (protein)
chain: IVGGRRARPHAWPFMVSLQLRGGHFCGATLIAPNFVMSAAHCVANVNVRAVRVVLGAHNLSRREPTRQVFAVQRIFENGYDPVNLLNDIVILQLNGSATINANVQVAQLPAQGRRLGNGVQCLAMGWGLLGRNRGIASVLQELNVTVVTSLCRRSNVCTLVRGRQAGVCFGDSGSPLVCNGLIHGIASFVRGGCASGLYPDAFAPVAQFVNWIDSIIQ
Kcat/Km [1]: 209000 M⁻¹ s⁻¹
Kcat/Km [2]: 181000 M⁻¹ s⁻¹
Kcat/Km [3]: 200000 M⁻¹ s⁻¹
Kcat/Km [4]: 49000 M⁻¹ s⁻¹
Kcat/Km [5]: 90000 M⁻¹ s⁻¹
Kcat/Km [6]: 65000 M⁻¹ s⁻¹

B2: human kallikrein 14 (hK14) (protein)
chain: IIGGHTCTRSSQPWQAALLAGPRRRFLCGGALLSGQWVITAAHCGRPILQVALGKHNLRRWEATQQVLRVVRQVTHPNYNSRTHDNDLMLLQLQQPARIGRAVRPIEVTQACASPGTSCRVSGWGTISSPIARYPASLQCVNINISPDEVCQKAYPRTITPGMVCAGVPQGGKDSCQGDSGGPLVCRGQLQGLVSWGMERCALPGYPGVYTNLCKYRSWIEETMRDK
Kcat/Km [1]: 367000 M⁻¹ s⁻¹
kcat/Km [1]: 367000 M⁻¹ s⁻¹
Kcat/Km [7]: 415000 M⁻¹ s⁻¹
kcat/Km [7]: 415000 M⁻¹ s⁻¹
Kcat/Km [8]: 388000 M⁻¹ s⁻¹
fold selectivity of cleavage against PK [8]: 27 and 78 fold more selective for hK14 than for hK2 and PK, respectively
fold selectivity of cleavage against hK2 [8]: 27 and 78 fold more selective for hK14 than for hK2 and PK, respectively
kcat/Km [8]: 388000 M⁻¹ s⁻¹
Kcat/Km [2]: 134000 M⁻¹ s⁻¹
kcat/Km [2]: 134000 M⁻¹ s⁻¹
kcat/Km [9]: 20000 M⁻¹ s⁻¹
kcat/Km [10]: 8000 M⁻¹ s⁻¹
Kcat/Km [11]: 18000 M⁻¹ s⁻¹
kcat/Km [11]: 18000 M⁻¹ s⁻¹
Kcat/Km [3]: 26000 M⁻¹ s⁻¹
kcat/Km [3]: 26000 M⁻¹ s⁻¹
kcat/Km [12]: 19000 M⁻¹ s⁻¹
kcat/Km [13]: 6000 M⁻¹ s⁻¹
kcat/Km [14]: 15000 M⁻¹ s⁻¹
kcat/Km [15]: 5000 M⁻¹ s⁻¹
Kcat/Km [16]: 127000 M⁻¹ s⁻¹
kcat/Km [16]: 127000 M⁻¹ s⁻¹
Kcat/Km [17]: 74000 M⁻¹ s⁻¹
kcat/Km [17]: 74000 M⁻¹ s⁻¹
kcat/Km [18]: 34000 M⁻¹ s⁻¹
kcat/Km [19]: 6000 M⁻¹ s⁻¹
Kcat/Km [20]: 80000 M⁻¹ s⁻¹
kcat/Km [20]: 80000 M⁻¹ s⁻¹
kcat/Km [21]: 8000 M⁻¹ s⁻¹
kcat/Km [22]: 7000 M⁻¹ s⁻¹
Kcat/Km [23]: 207000 M⁻¹ s⁻¹
kcat/Km [23]: 207000 M⁻¹ s⁻¹
Kcat/Km [24]: 243000 M⁻¹ s⁻¹
kcat/Km [24]: 243000 M⁻¹ s⁻¹
Kcat/Km [25]: 481000 M⁻¹ s⁻¹
kcat/Km [25]: 481000 M⁻¹ s⁻¹
hydrolysis of fluorescent substrate (CFP-GGGGG-YFP): is not hydrolyzed by hK14 (not shown)
kcat/Km [26]: 12000 M⁻¹ s⁻¹
Kcat/Km [27]: 307000 M⁻¹ s⁻¹
kcat/Km [27]: 307000 M⁻¹ s⁻¹
kcat/Km [28]: 9000 M⁻¹ s⁻¹
Kcat/Km [4]: 12000 M⁻¹ s⁻¹
kcat/Km [4]: 12000 M⁻¹ s⁻¹
Kcat/Km [29]: 24000 M⁻¹ s⁻¹
kcat/Km [29]: 24000 M⁻¹ s⁻¹
kcat/Km [30]: 6000 M⁻¹ s⁻¹
kcat/Km [31]: 9000 M⁻¹ s⁻¹
Kcat/Km [5]: 9000 M⁻¹ s⁻¹
kcat/Km [5]: 9000 M⁻¹ s⁻¹
Kcat/Km [6]: 15000 M⁻¹ s⁻¹
kcat/Km [6]: 15000 M⁻¹ s⁻¹
kcat/Km [32]: 27000 M⁻¹ s⁻¹
